Entries after “also recorded” stand apart in the source; their conditions may differ.
Assays:
[1] = test system: repeated caerulein-induced pancreatitis in iKRAS animals; assay: Pharmacological modulation of ADM in iKRAS mice rechallenged with caerulein (repeated pancreatitis); type: in vivo
Method: To explore the hypothesis that ADM is a physiologic, fast and reversible adaptation mediated by epithelial memory that limits the detrimental effects of repeated pancreatitis, the effects of pharmacological modulation of ADM was evaluated in iKRAS animals subjected to repeated inflammation.
(§1) Induction of acute pancreatitis. […] Control mice received injections of pyrogen-free PBS. Mice were examined daily for health conditions and sacrificed at the indicated time points by CO2 asphyxiation and cervical dislocation.
For ADM quantification two hematoxylin/eosin-stained 10×-magnification fields of whole-mount pancreata from two mice each experimental group were analyzed with ImageJ. ADM areas, expressed in pixels, were normalized to control (rechallenged) mice considered as reference.
Images, then, were analyzed with ImageJ and CC3 specific signal, expressed as area (pixels), was normalized to total pancreatic parenchyma using DAPI. From six to nine 4×-magnification fields of whole-mount pancreata from three mice each experimental group were analyzed.

[2] = test system: Caerulein-induced pancreatitis; assay: Pretreatment with ADM inducers in caerulein-induced pancreatitis: histology (ADM) and CD45 infiltration; type: in vivo, mice; settings: EGF 1.2 mg/kg i.p., two injections a day for four days, before caerulein; 24 hrs after caerulein; compared with sulindac
Description: Epigenetic modifiers: Recently, the emerging role of epigenetic regulation has led to the development of a wide spectrum of small molecules targeting selectively bromodomain and extra-terminal (BET) protein family which are currently under evaluation in preclinical model of hematological malignancies and solid tumors (Asangani et al., 2014; Delmore et al., 2011; Filippakopoulos et al., 2010). Leveraging the persistent chromatin modifications induced by an acute inflammatory event, the possibility of limiting the detrimental effects of repeated pancreatitis was tested through the administration of INCB054329, a BRD4 inhibitor currently in phase I-II clinical studies in patients with advanced malignancies (Falchook et al., 2019).
as §1
DAPI nuclear counterstaining was also performed.

[3] = EGF at pharmacological doses before induction of pancreatitis
[4] = iKRAS mice pretreated before and during CAE rechallenge, p<0.01

B1: EGF (protein, UniProt P01133 23-1207, looked up)
Pro-epidermal growth factor: PQHWSCPEGTLAGNGNSTCVGPAPFLIFSHGNSIFRIDTEGTNYEQLVVDAGVSVIMDFHYNEKRIYWVDLERQLLQRVFLNGSRQERVCNIEKNVSGMAINWINEEVIWSNQQEGIITVTDMKGNNSHILLSALKYPANVAVDPVERFIFWSSEVAGSLYRADLDGVGVKALLETSEKITAVSLDVLDKRLFWIQYNREGSNSLICSCDYDGGSVHISKHPTQHNLFAMSLFGDRIFYSTWKMKTIWIANKHTGKDMVRINLHSSFVPLGELKVVHPLAQPKAEDDTWEPEQKLCKLRKGNCSSTVCGQDLQSHLCMCAEGYALSRDRKYCEDVNECAFWNHGCTLGCKNTPGSYYCTCPVGFVLLPDGKRCHQLVSCPRNVSECSHDCVLTSEGPLCFCPEGSVLERDGKTCSGCSSPDNGGCSQLCVPLSPVSWECDCFPGYDLQLDEKSCAASGPQPFLLFANSQDIRHMHFDGTDYGTLLSQQMGMVYALDHDPVENKIYFAHTALKWIERANMDGSQRERLIEEGVDVPEGLAVDWIGRRFYWTDRGKSLIGRSDLNGKRSKIITKENISQPRGIAVHPMAKRLFWTDTGINPRIESSSLQGLGRLVIASSDLIWPSGITIDFLTDKLYWCDAKQSVIEMANLDGSKRRRLTQNDVGHPFAVAVFEDYVWFSDWAMPSVMRVNKRTGKDRVRLQGSMLKPSSLVVVHPLAKPGADPCLYQNGGCEHICKKRLGTAWCSCREGFMKASDGKTCLALDGHQLLAGGEVDLKNQVTPLDILSKTRVSEDNITESQHMLVAEIMVSDQDDCAPVGCSMYARCISEGEDATCQCLKGFAGDGKLCSDIDECEMGVPVCPPASSKCINTEGGYVCRCSEGYQGDGIHCLDIDECQLGEHSCGENASCTNTEGGYTCMCAGRLSEPGLICPDSTPPPHLREDDHHYSVRNSDSECPLSHDGYCLHDGVCMYIEALDKYACNCVVGYIGERCQYRDLKWWELRHAGHGQQQKVIVVAVCVVVLVMLLLLSLWGAHYYRTQKLLSKNPKNPYEESSRDVRSRRPADTEDGMSSCPQPWFVVIKEHQDLKNGGQPVAGEDGQAADGSMQPTSWRQEPQLCGMGTEQGCWIPVSSDKGSCPQVMERSFHMPSYGTQTLEGGVEKPHSLLSANPLWQQRALDPPHQMELTQ
modifications: Pro-epidermal growth factor
notes: growth factor used as MAPK agonist / ADM inducer
**Q.** How did the ADM formation [1, 3] turn out when B1 was run?
**A.** largely promoted ADM formation

**Q.** What about the “tissue damage, evaluated as number of cells positive for cleaved caspase 3” value [1, 3] of the same molecule?
**A.** strong reduction of tissue damage

**Q.** And the “decreased tissue damage as indicated by CC3 immunostaining” value [1, 4]?
**A.** ~8 fold

**Q.** What about the “increase of ADM formation (relative area) with respect to control mice rechallenged with CAE alone” value [1, 4] of the same molecule?
**A.** ~3 fold

**Q.** What about the “infiltration of CD45 cells (marker of inflammation)” value [2] of the same molecule?
**A.** almost completely suppressed; also recorded: significant decrease of CD45 infiltration
